Measured values: PMC11189471

How the values were obtained:
[1] = molecular target: full-length HpARI2 (Alarmin Release Inhibitor, Heligmosomoides polygyrus bakeri) (Heligmosomoides polygyrus bakeri); assay: SPR; 400-450 RU biotinylated HpARI2 captured on the chip; two-fold series (1000 nM to 15.62 nM) of hIL-33 or hIL-33:S158R flowed
[2] = molecular target: HpARI2_CCP2/3 (HpARI2 lacking CCP1) (Heligmosomoides polygyrus bakeri); assay: SPR; biotinylated HpARI2 variant (300-400 RU) captured with the Biotin CAPture kit; two-fold series of IL-33 flowed at 40 µl/min; 25 °C; 20 mM Tris-Cl pH 8.0, 150 mM NaCl, 1 mM EDTA, 0.02% Tween-20, 1 mg/ml salmon sperm DNA; Langmuir fit
[3] = molecular target: HpARI2-LD (full-length HpARI2 with residues 180-188 of the CCP3 loop deleted) (Heligmosomoides polygyrus bakeri); assay: SPR; screening of HpARI2 variants for mIL-33 binding at one concentration (legend: HpARI2 concentration of 100 nM); same reagents and equipment as the kinetic SPR; n = 3
[4] = molecular target: HpARI2-LD (full-length HpARI2 with residues 180-188 of the CCP3 loop deleted) (Heligmosomoides polygyrus bakeri); assay: SPR; biotinylated HpARI2 variant (300-400 RU) captured with the Biotin CAPture kit; two-fold series of IL-33 flowed at 40 µl/min; 25 °C; 20 mM Tris-Cl pH 8.0, 150 mM NaCl, 1 mM EDTA, 0.02% Tween-20, 1 mg/ml salmon sperm DNA; Langmuir fit
[5] = molecular target: HpARI2_CCP1/2 (HpARI2 lacking CCP3) (Heligmosomoides polygyrus bakeri); assay: as above
[6] = molecular target: full-length HpARI2 (Alarmin Release Inhibitor, Heligmosomoides polygyrus bakeri) (Heligmosomoides polygyrus bakeri); assay: as above
[7] = molecular target: HpARI2_CCP2/3 (Heligmosomoides polygyrus bakeri); assay: SPR; biotinylated HpARI2 variant (300-400 RU) captured on a Biotin CAPture chip, two-fold series of mIL-33 (or mIL-33 R159A) injected; Biacore T200, 25 °C, 20 mM Tris-Cl pH 8.0, 150 mM NaCl, 1 mM EDTA, 0.02% Tween-20, 1 mg/ml salmon sperm DNA; Langmuir 1:1 fit
[8] = molecular target: mouse IL-33 (residues 112-270) (mouse)
[9] = molecular target: mouse IL-33 (residues 112-270) (mouse); assay: SPR; 1000-1200 RU ST2-Fc captured on a protein A/G-coated CM5 chip; mIL-33 (2 µM) alone or mixed with 2.5 µM HpARI2, HpARI2_CCP2/3 or HpARI2-LD flowed; 20 mM Tris-Cl pH 8.0, 150 mM NaCl, 1 mg/ml salmon sperm DNA, 0.02% Tween-20

In the case of “human IL-33 (from UniProt O95760 1-270) (ligand)”, the Kd [1] is reported as 65 nM.

Substance “human IL-33 S158R mutant (from UniProt O95760) (ligand)” has a fold increase of HpARI2 binding against human IL-33 [1] greater than 100 fold.

Substance mouse IL-33 R159A mutant (ligand) has a fold reduction in binding affinity against wild-type mIL-33 [2] of 1000 fold.

mouse IL-33 (residues 112-270) (ligand) showed a percent reduction of mIL-33 binding against HpARI2 [3] of 60%, a Kd [4] of 45 nM and a Kd [5] of 49 nM. For the same substance, the fold koff against full-length HpARI2 [5] was greater than 100 fold, the Kd [2] was 4 nM and the Kd [6] was 0.048 nM.

mouse IL-33 R159A (ligand) was tested, and the Kd [7] was 3.8 µM.

“HpARI2-LD (full-length HpARI2 with residues 180-188 of the CCP3 loop deleted) (natural protein)” showed a protein concentration needed for the same inhibition of IL-5 and IL-13 release as wild-type HpARI2 (bone marrow-derived ILC2s) [8] of 100 fold and a percent reduction of mIL-33 binding to ST2-Fc at 2.5 µM HpARI2-LD [9] of 25%.
